Reference: patent US20120316071A1 (published 2012)
Values belong to the binder of their own block, whether it stands above or below them.

What was measured:
[1] = target: T1, rHuman EGF R/Fc Chimera, CF (R&D Systems Cat#344-ER) (human, UniProt P00533 25-645); assay: MSD multispot ECL, antigen spotted on plate, Fab 22 nM; blank spot 289
T1 construct: Bought from R&D Systems; also called epidermal growth factor receptor (EGF R); not shown: Fc of the bought chimera

[2] = target: T2, rHuman IGF-1 sR, (IGF-1 sR), CF (R&D Systems Cat#391-GR) (human, UniProt P08069 31-932); assay: as above
T2 construct: Bought from R&D Systems and called a soluble receptor; also called insulin-like growth factor-1 soluble receptor

[3] = target: T3, Recombinant Human DLL4 (R&D Systems Cat#1506-D4/CF) (human, UniProt Q9NR61 27-524); assay: as above
T3 construct: Bought from R&D Systems; also called rHuman DLL4; delta-like protein 4

[4] = target: T4, rHuman Notch-1/Fc Chimera, CF (R&D Systems Cat#3647-TK) (human, UniProt P46531 19-526); assay: as above
T4 construct: Bought from R&D Systems; not shown: Fc of the bought chimera

[5] = target: T5, rHuman HGF R/c-MET/Fc Chimera, CF (R&D Systems Cat#358-MT/CF) (human, UniProt P08581 25-932); assay: as above
T5 construct: Bought from R&D Systems; also called HGF R/Fc; hepatocyte growth factor receptor (HGF R/c-Met); not shown: Fc of the bought chimera
T5 sequence (P08581 25-932, change not shown): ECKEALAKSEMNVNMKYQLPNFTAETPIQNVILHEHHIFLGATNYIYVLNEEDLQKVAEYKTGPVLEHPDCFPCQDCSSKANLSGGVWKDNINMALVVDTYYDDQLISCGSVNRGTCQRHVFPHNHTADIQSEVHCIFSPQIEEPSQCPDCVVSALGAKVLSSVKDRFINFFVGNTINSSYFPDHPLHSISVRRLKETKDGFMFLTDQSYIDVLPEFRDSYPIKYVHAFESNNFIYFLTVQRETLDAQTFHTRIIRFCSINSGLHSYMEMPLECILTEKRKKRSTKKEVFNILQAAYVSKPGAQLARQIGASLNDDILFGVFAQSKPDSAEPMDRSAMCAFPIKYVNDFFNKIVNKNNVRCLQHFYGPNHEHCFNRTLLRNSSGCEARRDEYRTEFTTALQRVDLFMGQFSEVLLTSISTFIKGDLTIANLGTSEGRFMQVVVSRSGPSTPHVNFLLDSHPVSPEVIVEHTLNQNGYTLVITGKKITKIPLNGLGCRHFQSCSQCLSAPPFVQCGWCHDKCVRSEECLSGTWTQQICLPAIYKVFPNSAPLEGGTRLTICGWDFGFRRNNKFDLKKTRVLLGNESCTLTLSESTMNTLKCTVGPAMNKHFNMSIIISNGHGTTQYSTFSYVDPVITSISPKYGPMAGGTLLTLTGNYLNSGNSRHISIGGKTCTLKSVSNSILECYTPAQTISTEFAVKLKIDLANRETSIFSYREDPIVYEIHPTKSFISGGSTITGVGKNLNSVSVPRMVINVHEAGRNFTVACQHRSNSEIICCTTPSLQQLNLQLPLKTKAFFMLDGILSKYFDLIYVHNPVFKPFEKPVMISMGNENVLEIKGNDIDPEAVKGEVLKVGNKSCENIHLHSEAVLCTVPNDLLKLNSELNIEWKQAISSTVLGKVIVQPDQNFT

[6] = target: T6, Recombinant Human DLL4 (R&D Systems Cat#1506-D4/CF) (human, UniProt Q9NR61 27-524); assay: MSD Multispot ECL, antigen spotted on plate, Fab at 15 nM; blank spot 261
T6 construct: Bought recombinant protein; also called rHuman DLL4; delta-like protein 4

[7] = target: T7, rHuman P-Cadherin/Fc Chimera, CF (R&D Systems Cat#861-PC) (human, UniProt P22223 108-654); assay: as above
T7 construct: Bought Fc chimera; Fc part of the bought chimera not given

[8] = target: T8, rHuman Notch-1/Fc Chimera, CF (R&D Systems Cat#3647-TK) (human, UniProt P46531 19-526); assay: as above
T8 construct: Bought Fc chimera; Fc part of the bought chimera not given

[9] = target: T9, rHuman Erythropoietin R/Fc Chimera, CF (R&D Systems Cat#963-ER) (human, UniProt P19235 25-250); assay: as above
T9 construct: Bought Fc chimera; also called EPO R/Fc; Epo R; Fc part of the bought chimera not given
T9 sequence (looked up): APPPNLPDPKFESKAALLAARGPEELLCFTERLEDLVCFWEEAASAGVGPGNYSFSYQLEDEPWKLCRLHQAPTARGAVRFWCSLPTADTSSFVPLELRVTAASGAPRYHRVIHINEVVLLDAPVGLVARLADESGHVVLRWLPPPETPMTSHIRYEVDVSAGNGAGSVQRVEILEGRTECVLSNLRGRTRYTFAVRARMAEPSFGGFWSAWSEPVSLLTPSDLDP

[10] = target: T10, rHuman CD44/Fc Chimera, CF (R&D Systems Cat#3660-CD) (human, UniProt P16070 21-220); assay: as above
T10 construct: Bought Fc chimera; Fc part of the bought chimera not given

[11] = target: T11, rHuman EGF R/Fc Chimera, CF (R&D Systems Cat#344-ER) (human, UniProt P00533 25-645); assay: MSD multispot ECL, antigen spotted on plate; Fab 0.00797 uM; blank spot 364
T11 construct: Bought recombinant protein; also called epidermal growth factor receptor; Fc part of the bought chimera not given

[12] = target: T12, rHuman Notch-1/Fc Chimera, CF (R&D Systems Cat#3647-TK) (human, UniProt P46531 19-526); assay: as above
T12 construct: Bought recombinant protein; Fc part of the bought chimera not given

[13] = target: T13, rHuman ErbB2/Fc Chimera, CF (R&D Systems Cat#1129-ER) (human, UniProt P04626 23-652); assay: as above
T13 construct: Bought recombinant protein; also called human epidermal growth factor 2 receptor; Fc part of the bought chimera not given

[14] = target: T14, rHuman IGF-1 sR, CF (R&D Systems Cat#391-GR) (human, UniProt P08069 31-932); assay: as above
T14 construct: Bought recombinant soluble receptor; also called insulin-like growth factor-1 soluble receptor

[15] = target: T15, rHuman Erythropoietin R/Fc Chimera, CF (R&D Systems Cat#963-ER) (human, UniProt P19235 25-250); assay: as above
T15 construct: Bought recombinant protein; also called EPO R/Fc; Epo R; Fc part of the bought chimera not given
T15 sequence (looked up): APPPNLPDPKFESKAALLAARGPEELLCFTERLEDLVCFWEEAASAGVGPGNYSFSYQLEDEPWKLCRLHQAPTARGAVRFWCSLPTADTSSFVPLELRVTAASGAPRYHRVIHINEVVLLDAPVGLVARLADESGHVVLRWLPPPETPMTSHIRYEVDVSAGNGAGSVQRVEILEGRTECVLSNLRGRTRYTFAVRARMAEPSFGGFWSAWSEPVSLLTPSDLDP

[16] = target: T16, rHuman P-Cadherin/Fc Chimera, CF (R&D Systems Cat#861-PC) (human, UniProt P22223 108-654); assay: as above
T16 construct: Bought recombinant protein; Fc part of the bought chimera not given

[17] = target: T17, rHuman CD44/Fc Chimera, CF (R&D Systems Cat#3660-CD) (human, UniProt P16070 21-220); assay: as above
T17 construct: Bought recombinant protein; Fc part of the bought chimera not given

[18] = target: T18, Recombinant Human DLL4 (R&D Systems Cat#1506-D4/CF) (human, UniProt Q9NR61 27-524); assay: as above
T18 construct: Bought recombinant protein; also called delta-like protein 4; rHuman DLL4

- ECL signal [1]: 312
- ECL signal [2]: 347
- ECL signal [3]: 342
- ECL signal [4]: 389
- ECL signal [5]: 203
B1: Fab VH1-46_IGHD3-10*01_IGHJ4*01 & B3_IGKJ1*01 (Fab, V domains shown)
VH: QVQLVQSGAEVKKPGASVKVSCKASGYTFTSYYMHWVRQAPGQGLEWMGIINPSGGSTSYAQKFQGRVTMTRDTSTSTVYMELSSLRSEDTAVYYCAREYYYGSGSYYNDYFDYWGQGTLVTVSS
VL: not shown
notes: Tested as a Fab made in E. coli; VH was cloned into Plasmid A (CH1 constant region, His6 and Flag tags); The kappa VL was cloned into Plasmid C (kappa CL)

- ECL signal [6]: 690
- ECL signal [7]: 351
- ECL signal [8]: 508
- ECL signal [9]: 397
- ECL signal [10]: 454
B2: Fab VH6-1_IGHD3-3*01_IGHJ4*01 & V4-3_IGLJ4*01 (Fab, V domains shown)
VH: QVQLQQSGPGLVKPSQTLSLTCAISGDSVSSNSAAWNWIRQSPSRGLEWLGRTYYRSKWYNDYAVSVKSRITINPDTSKNQFSLQLNSVTPEDTAVYYCAREYYDFWSGYYTDYFDYWGQGTLVTVSS
VL: QPVLTQPTSLSASPGASARLTCTLRSGINLGSYRIFWYQQKPESPPRYLLSYYSDSSKHQGSGVPSRFSGSKDASSNAGILVISGLQSEDEADYYCMIWHSSASFVFGGGTQLIIL
notes: Tested as a purified germline Fab made in E. coli; The VH was cloned into plasmid A (CH1 constant region, His6 and Flag tags) and the lambda VL into plasmid E (lambda CL)

- ECL signal [11]: 530
- ECL signal [12]: 654
- ECL signal [13]: 493
- ECL signal [14]: 564
- ECL signal [15]: 566
- ECL signal [16]: 502
- ECL signal [17]: 490
- ECL signal [18]: 872
B3: Fab VH4-34_IGHD7-27*01_IGHJ4*01 & L5_IGKJ1*01 (Fab, V domains shown)
VH: QVQLQQWGAGLLKPSETLSLTCAVYGGSFSGYYWSWIRQPPGKGLEWIGEINHSGSTNYNPSLKSRVTISVDTSKNQFSLKLSSVTAADTAVYYCARANWGDYFDYWGQGTLVTVSS
VL: DIQMTQSPSSVSASVGDRVTITCRASQGISSWLAWYQQKPGKAPKLLIYAASSLQSGVPSRFSGSGSGTDFTLTISSLQPEDFATYYCQQANSFPPWTFGQGTKVEIKR
notes: Germline library Fab expressed in E. coli; VH was cloned into Plasmid A, which adds CH1 with His6 and Flag tags
